From patent US11530263B2, “IL-18 binding protein (IL-18BP) in inflammatory diseases” (AB2 BIO SA, priority 2013, dated 2022)

What was measured:
[1] = target: T1, IL-18 previously complexed to IL-18BP (Homo sapiens, UniProt Q14116); experiment: Luminex screening: monoclonal antibody binding on IL-18 previously complexed to IL-18BP; conditions: after third screening step, mRNA sequencing and clone dilution
T1 sequence (Q14116 37-193): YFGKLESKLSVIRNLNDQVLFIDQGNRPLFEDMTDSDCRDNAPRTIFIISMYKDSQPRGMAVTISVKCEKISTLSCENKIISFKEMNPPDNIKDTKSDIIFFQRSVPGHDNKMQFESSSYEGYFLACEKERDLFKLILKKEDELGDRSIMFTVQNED
T1 sequence (O95998 31-194 partner): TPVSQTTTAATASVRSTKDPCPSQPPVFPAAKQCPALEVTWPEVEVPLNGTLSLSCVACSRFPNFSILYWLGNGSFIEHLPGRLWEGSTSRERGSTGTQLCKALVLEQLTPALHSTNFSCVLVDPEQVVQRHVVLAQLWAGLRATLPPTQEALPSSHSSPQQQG
Source text: (§1) Mice were vaccinated aginst human interleukin-18 using a technology allowing immunization with properly folded proteins. Prior to immunization, genetically modified mice were selected for major histocompatibility complexes supposedly sensitive to IL-18 surface area epitopes binding IL-18BP. Following immunization, B cells were isolated from spleen and hybridized following standard hybridoma technology. Hybridoma were sorted onto microplates and then tested for expression of monoclonal anti-IL-18 antibodies targeting IL-18 epitopes included in IL-18BP binding site. The screening was performed in 3 sequential and selective steps: • First step. […] Potential antibodies targeting IL-18 on IL-18BP binding site were rescreened in competition with IL-18BP. For this, monoclonal antibodies were bound to Luminex beads carrying IL-18. The complex was then exposed to biotinylated IL-18BP in order to identify interference to previously identified anti-IL-18 antibodies (see Table 1, Column #2). […] A third screening program was undertaken with Luminex beads linked to IL-18BP and then complexed to interleukin-18, assuring the presentation of properly folded recombinant IL-18 to positive antibody candidates.

human interleukin-18 = target: T2, human interleukin-18 (Homo sapiens, UniProt Q14116); experiment: Luminex screening: monoclonal antibodies binding on IL-18; conditions: IL-18 on Luminex beads
T2 sequence (Q14116 37-193): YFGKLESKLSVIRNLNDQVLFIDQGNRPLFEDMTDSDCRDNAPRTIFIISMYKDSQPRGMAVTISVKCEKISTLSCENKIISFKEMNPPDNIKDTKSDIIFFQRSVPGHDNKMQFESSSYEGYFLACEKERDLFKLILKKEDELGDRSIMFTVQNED
Source text: as §1

[2] = target: T3, IL-18 previously complexed to monoclonal antibody (Homo sapiens, UniProt Q14116); experiment: Luminex screening: biotinylated IL-18BP binding on IL-18 previously complexed to monoclonal antibody; conditions: Column #2
T3 sequence (Q14116 37-193): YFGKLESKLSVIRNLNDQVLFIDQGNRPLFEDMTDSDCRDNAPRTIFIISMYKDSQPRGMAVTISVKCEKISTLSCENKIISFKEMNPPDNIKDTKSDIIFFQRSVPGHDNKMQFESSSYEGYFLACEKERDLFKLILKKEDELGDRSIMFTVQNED
Source text: as §1

Molecule | Binding to IL-18 on the IL-18BP binding site [1] | Monoclonal antibodies binding on IL-18, Fluorescence intensity (human interleukin-18) | IL-18BP binding on IL-18 previously complexed to monoclonal antibody, Fluorescence intensity [2]
132H4: monoclonal anti-IL-18 antibody; VH SEQ ID NO: 23, VK SEQ ID NO: 24 (antibody, V domains shown, Antibody 132H4 VH sequence; Antibody 132H4 VK sequence) VH: EVKLVESGGGLVKPGGSLKLSCAASGFTFSNYAMSWVRQNPAKRLEWVATISSGGANIYYPDSVKGRFIISRDNARNTLYLQMSSLRSEDTAMYYCARGDYFNHFWFAYWGQGTLVTVSA VL: DVLMTQTPLSLPVSLGDQASISCRSSQSIVHSNGNTYLEWYLQKPGQSPKFLIYKVSNRFSGVPDRFSGSGSGTDFTLKINRVEAEDLGIYYCFQGSHVPWTFGGGTKLEIK | confirmed to bind to IL-18 on the IL-18BP binding site | 23 839 | 1 488
107C6: monoclonal anti-IL-18 antibody; VH SEQ ID NO: 9, VK SEQ ID NO: 10 (antibody, V domains shown, Antibody 107C6 VH sequence; Antibody 107C6 VK sequence) VH: QIQLVQSGPELKKPGETVKLSCRASGYTFTNYGMNWVKQAPGKGLKWMGWINTYSGVPTYADDFKGQFAFSLETSAATAFLQINNLKDEDTATYFCAREGYSTTRSMDYWGQGTSVTVSS VL: DIVMSQSPSSLAVSAGEKVTMSCKSSQSLLDSRTRKNYLVWYQQKPGQSPKLLIYWASTRGSGVPDRFTGSGSGTDFTLTISSVQAEDLAVYYCKQSYNLRTFGGGTKLEIK | confirmed to bind to IL-18 on the IL-18BP binding site | 26 250 | 1 389
108F8: monoclonal anti-IL-18 antibody; VH SEQ ID NO: 11, VK SEQ ID NO: 12 (antibody, V domains shown, Antibody 108F8 VH sequence; Antibody 108F8 VK sequence) VH: QIQLVQSGPDSKKPGETVKLSCRASGYTFTNYGMNWVKQAPGKGLKWMGWINTYSGVPTYADDFKGQFAFSLETSAATAFLQINNLKDEDTATYFCAREGYSTTRSMDYWGQGTSVTVSS VL: DIVMSQSPSSLAVSAGEKVTMSCKSSQSLLDSRTRKNYLVWYQQKPGQSPKLLIYWASTRGSGVPDRFTGSGSGTDFTLTISSVQAEDLAVYYCKQSYNLRTFGGGTKLEIK | confirmed to bind to IL-18 on the IL-18BP binding site | 25 126 | 1 292
109A6: monoclonal anti-IL-18 antibody; VH SEQ ID NO: 13, VK SEQ ID NO: 14 (antibody, V domains shown, Antibody 109A6 VH sequence; Antibody 109A6 VK sequence) VH: EVQLQQSGAELVKPGASVKLSCTASGFKIKDTYIHWVIQRPAQGLEWIGRIDPANGNTIYGSKFQGKATLTADTSSNTAYIHLSSLTSGDSAVYYCAGYVWFAYWGQGTLVTVSA VL: DVVMTQVPLSLPVSLGDQASISCRSSQRLVHSNGNTYLHWFLQKPGQSPKLLIYTVSNRFSGVPDRFSGSGSGTDFTLKISRVEAEDLGVYFCSQSTLVPWTFGGGTKLEIK | confirmed to bind to IL-18 on the IL-18BP binding site | 25 848 | 913
131B4: monoclonal anti-IL-18 antibody; VH SEQ ID NO: 18, VK SEQ ID NO: 19 (antibody, V domains shown, Antibody 131B4 VH sequence; Antibody 131B4 VK sequence) VH: EVQVQQSGAELVKPGASVKLSCTASGFKIKDTYIHWLKQRPEQGLEWIGRIDPANGNTIYGSKFQGKATITADTSSNTAYIQLSSLTSGDTAVYFCAGYVWFAYWGQGTLVTVSA VL: DAVLTQTPLSLPVSLGDQASISCTSSQSLVHSNGNTYLHWYLQKPGQSPKLLIYKVSDRFSGVPDRFSGSGSGTDFTLMITRVEAEDLGVYFCSQSSLVPWTFGGGTKLEVK | confirmed to bind to IL-18 on the IL-18BP binding site | 24 838 | 1 656
